Data published in patent publication US20200181277A1 (Genmab, published 2020).
Positions count from the first letter of the chain named. In names and notes the source's numbering stands. Values belong to the binder of their own block, whether it stands above or below them.

What was measured:
human 4-1BB = human 4-1BB (human, UniProt Q07011 24-255); experiment: cell-based or functional assay
human CD40 = human CD40 (human, UniProt P25942 21-277); experiment: cell-based or functional assay
purified human C1q [1] = target: T1, purified human C1q (human, UniProt P02745 23-245; P02746 28-253; P02747 29-245); experiment: C1q binding ELISA: plate coated with 1 µg/mL antibody, purified C1q titrated 0.010-30 µg/mL; SD 0.8, n 3
T1 construct: Purified C1q, Quidel Cat # A400; multimer of A, B and C chains
Description: (§1) A binding ELISA was performed to evaluate the effect of different substitutions on C1q binding. […] Plates were washed and blocked for 1 hour at RT with 200 μL/well 0.5×PBS supplemented with 0.025% Tween 20 and 0.1% gelatin while shaking. […] The reaction was stopped by the addition of 100 μL 2% oxalic acid. Absorbance was measured at 405 nm in a BioTek EL808 Microplate Reader (BioSPX). Log transformed data were analyzed by fitting sigmoidal dose-response curves with variable slope using GraphPad Prism software.

purified human C1q [2] = target: T1, purified human C1q; experiment: C1q binding ELISA (Example 6): plate coated with 1 µg/mL antibody, purified C1q titrated; SD 3.9, n 3
Description: as §1

purified human C1q [3] = target: T1, purified human C1q; experiment: C1q binding ELISA: plate coated with 1 µg/mL antibody, purified C1q titrated 0.010-30 µg/mL; SD 0.1, n 3
Description: as §1

purified human C1q [4] = target: T1, purified human C1q; experiment: C1q binding ELISA: plate coated with 1 µg/mL antibody, purified C1q titrated 0.010-30 µg/mL; SD 0.2, n 3
Description: as §1

purified human C1q [5] = target: T1, purified human C1q; experiment: C1q binding ELISA (Example 6): plate coated with 1 µg/mL antibody, purified C1q titrated; SD 0.1, n 3
Description: as §1

Chain of human CD40 (P25942 21-277): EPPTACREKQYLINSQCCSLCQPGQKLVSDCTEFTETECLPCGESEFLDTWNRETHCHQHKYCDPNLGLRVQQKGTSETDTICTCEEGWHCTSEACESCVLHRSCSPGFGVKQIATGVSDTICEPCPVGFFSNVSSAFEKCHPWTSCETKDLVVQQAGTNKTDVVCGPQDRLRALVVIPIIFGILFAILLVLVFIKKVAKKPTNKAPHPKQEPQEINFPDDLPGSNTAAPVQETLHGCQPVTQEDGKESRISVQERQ
Chain of human 4-1BB (Q07011 24-255): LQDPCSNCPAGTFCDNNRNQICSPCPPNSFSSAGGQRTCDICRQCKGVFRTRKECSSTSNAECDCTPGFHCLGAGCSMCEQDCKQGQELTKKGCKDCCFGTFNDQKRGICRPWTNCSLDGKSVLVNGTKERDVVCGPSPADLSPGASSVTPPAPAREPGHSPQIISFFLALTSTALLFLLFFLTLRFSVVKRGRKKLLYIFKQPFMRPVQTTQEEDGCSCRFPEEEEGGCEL

B1: IgG1-BMS-663513-K326W/E333S/E430G (antibody, V domains shown)
VH: QVQLQQWGAGLLKPSETLSLTCAVYGGSFSGYYWSWIRQSPEKGLEWIGEINHGGYVTYNPSLESRVTISVDTSKNQFSLKLSSVTAADTAVYYCARDYGPGNYDWYFDLWGRGTLVTVSS
VL: EIVLTQSPATLSLSPGERATLSCRASQSVSSYLAWYQQKPGQAPRLLIYDASNRATGIPARFSGSGSGTDFTLTISSLEPEDFAVYYCQQRSNWPPALTFGGGTKVEIK
4-1BB signaling, luciferase reporter Jurkat cells, EC50 (human 4-1BB): 0.0329 µg/mL

B2: IgG1-CD40-CP870893 (antibody)
heavy: not shown
VL: DIQMTQSPSSVSASVGDRVTITCRASQGIYSWLAWYQQKPGKAPNLLIYTASTLQSGVPSRFSGSGSGTDFTLTISSLQPEDFATYYCQQANIFPLTFGGGTKVEIK
CD40 response, luciferase reporter cells, EC50 (human CD40): 0.187 µg/mL

B4: IgG1-CD40-SGN40 (antibody)
heavy: not shown
VL: DIQMTQSPSSLSASVGDRVTITCRSSQSLVHSNGNTFLHWYQQKPGKAPKLLIYTVSNRFSGVPSRFSGSGSGTDFTLTISSLQPEDFATYFCSQTTHVPWTFGQGTKVEIK
CD40 response, luciferase reporter cells, EC50 (human CD40): 3.36 µg/mL

B6: IgG1-CD40-SGN40-E430G (antibody)
heavy: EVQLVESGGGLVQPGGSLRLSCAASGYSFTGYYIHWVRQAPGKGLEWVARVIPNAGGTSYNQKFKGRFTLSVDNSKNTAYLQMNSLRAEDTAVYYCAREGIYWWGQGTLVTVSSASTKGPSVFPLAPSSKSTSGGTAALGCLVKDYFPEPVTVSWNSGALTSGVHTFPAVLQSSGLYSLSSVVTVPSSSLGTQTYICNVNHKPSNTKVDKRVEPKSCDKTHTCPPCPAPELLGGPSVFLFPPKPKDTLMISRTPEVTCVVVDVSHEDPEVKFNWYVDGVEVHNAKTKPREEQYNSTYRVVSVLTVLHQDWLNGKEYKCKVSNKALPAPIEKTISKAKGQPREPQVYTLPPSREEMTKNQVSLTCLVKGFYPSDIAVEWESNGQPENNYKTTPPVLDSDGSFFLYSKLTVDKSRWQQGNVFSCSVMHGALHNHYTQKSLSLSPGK
VL: B4 VL
CD40 response, luciferase reporter cells, EC50 (human CD40): 0.336 µg/mL

B7: IgG1-hDR5-01-G56T-E333A/P396L/E430G (antibody)
heavy: EVQLQQSGAEVVKPGASVKLSCKASGFNIKDTFIHWVKQAPGQGLEWIGRIDPANTNTKYDPKFQGKATITTDTSSNTAYMELSSLRSEDTAVYYCVRGLYTYYFDYWGQGTLVTVSSASTKGPSVFPLAPSSKSTSGGTAALGCLVKDYFPEPVTVSWNSGALTSGVHTFPAVLQSSGLYSLSSVVTVPSSSLGTQTYICNVNHKPSNTKVDKRVEPKSCDKTHTCPPCPAPELLGGPSVFLFPPKPKDTLMISRTPEVTCVVVDVSHEDPEVKFNWYVDGVEVHNAKTKPREEQYNSTYRVVSVLTVLHQDWLNGKEYKCKVSNKALPAPIAKTISKAKGQPREPQVYTLPPSREEMTKNQVSLTCLVKGFYPSDIAVEWESNGQPENNYKTTPLVLDSDGSFFLYSKLTVDKSRWQQGNVFSCSVMHGALHNHYTQKSLSLSPGK
light: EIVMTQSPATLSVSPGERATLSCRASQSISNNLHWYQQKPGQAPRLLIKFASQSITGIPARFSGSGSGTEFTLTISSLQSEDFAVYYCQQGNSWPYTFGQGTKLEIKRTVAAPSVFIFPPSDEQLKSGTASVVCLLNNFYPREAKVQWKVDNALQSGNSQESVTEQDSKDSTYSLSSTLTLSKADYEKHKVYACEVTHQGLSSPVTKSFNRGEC
notes: IgG1,kappa
EC50 (purified human C1q [1]): 1.9 µg/mL

B9: IgG1-hDR5-01-G56T-K326A/E333A/E430G (antibody)
heavy: B7 heavy with K327A, L397P
light: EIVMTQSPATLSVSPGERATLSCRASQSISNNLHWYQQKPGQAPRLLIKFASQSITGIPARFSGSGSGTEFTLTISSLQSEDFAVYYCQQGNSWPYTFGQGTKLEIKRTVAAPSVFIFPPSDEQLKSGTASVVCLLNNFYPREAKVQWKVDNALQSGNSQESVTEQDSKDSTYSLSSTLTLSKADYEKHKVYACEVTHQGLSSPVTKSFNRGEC
notes: IgG1,kappa
EC50 (purified human C1q [3]): 0.8 µg/mL

B11: IgG1-hDR5-01-G56T-K326A/P396L/E430G (antibody)
heavy: B7 heavy with K327A, A334E
light: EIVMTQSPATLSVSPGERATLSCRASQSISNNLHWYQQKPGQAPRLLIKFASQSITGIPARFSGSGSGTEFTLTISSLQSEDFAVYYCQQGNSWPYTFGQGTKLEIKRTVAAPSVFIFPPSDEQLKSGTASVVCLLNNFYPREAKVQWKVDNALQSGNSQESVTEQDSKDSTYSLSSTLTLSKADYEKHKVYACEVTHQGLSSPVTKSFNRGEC
notes: IgG1,kappa
EC50 (purified human C1q [3]): 0.6 µg/mL

Now from value to binder:

CD40 response, luciferase reporter cells, EC50 (human CD40): 0.0459 µg/mL
B3: IgG1-CD40-CP870893-K326W/E333S/E430G (antibody)
heavy: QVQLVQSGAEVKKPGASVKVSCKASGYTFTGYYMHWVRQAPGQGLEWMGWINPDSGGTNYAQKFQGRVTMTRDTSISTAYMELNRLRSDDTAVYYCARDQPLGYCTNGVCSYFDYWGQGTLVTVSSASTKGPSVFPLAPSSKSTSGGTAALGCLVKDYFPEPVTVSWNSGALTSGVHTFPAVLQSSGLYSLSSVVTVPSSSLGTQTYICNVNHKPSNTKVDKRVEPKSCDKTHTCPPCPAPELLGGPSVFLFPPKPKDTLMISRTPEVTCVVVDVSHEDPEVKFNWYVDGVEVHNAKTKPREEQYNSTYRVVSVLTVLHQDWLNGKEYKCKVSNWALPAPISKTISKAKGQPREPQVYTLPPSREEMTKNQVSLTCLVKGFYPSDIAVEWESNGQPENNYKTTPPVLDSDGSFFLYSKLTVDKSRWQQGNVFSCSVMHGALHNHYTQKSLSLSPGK
VL: B2 VL

CD40 response, luciferase reporter cells, EC50 (human CD40): 0.018 µg/mL
B5: IgG1-CD40-SGN40-K326W/E333S/E430G (antibody)
heavy: EVQLVESGGGLVQPGGSLRLSCAASGYSFTGYYIHWVRQAPGKGLEWVARVIPNAGGTSYNQKFKGRFTLSVDNSKNTAYLQMNSLRAEDTAVYYCAREGIYWWGQGTLVTVSSASTKGPSVFPLAPSSKSTSGGTAALGCLVKDYFPEPVTVSWNSGALTSGVHTFPAVLQSSGLYSLSSVVTVPSSSLGTQTYICNVNHKPSNTKVDKRVEPKSCDKTHTCPPCPAPELLGGPSVFLFPPKPKDTLMISRTPEVTCVVVDVSHEDPEVKFNWYVDGVEVHNAKTKPREEQYNSTYRVVSVLTVLHQDWLNGKEYKCKVSNWALPAPISKTISKAKGQPREPQVYTLPPSREEMTKNQVSLTCLVKGFYPSDIAVEWESNGQPENNYKTTPPVLDSDGSFFLYSKLTVDKSRWQQGNVFSCSVMHGALHNHYTQKSLSLSPGK
VL: B4 VL

EC50 (purified human C1q [2]): 11.4 µg/mL
B8: IgG113F-hDR5-01-G56T-E430G (antibody)
heavy: B7 heavy with K275Q, N277K, Y301F, A334E, A340T, N385S, K393N, L397P, V398M, V423I
light: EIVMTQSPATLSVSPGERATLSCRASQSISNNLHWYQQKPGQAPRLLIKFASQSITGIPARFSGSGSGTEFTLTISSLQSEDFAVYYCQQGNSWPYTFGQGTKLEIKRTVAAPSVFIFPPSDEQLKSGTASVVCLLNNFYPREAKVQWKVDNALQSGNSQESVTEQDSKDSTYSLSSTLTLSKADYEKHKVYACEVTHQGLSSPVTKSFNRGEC
notes: also called IgG113F-E430G

EC50 (purified human C1q [4]): 1.3 µg/mL
B10: IgG1-hDR5-01-G56T-K326A/E333A/P396L/E430G (antibody)
heavy: B7 heavy with K327A
light: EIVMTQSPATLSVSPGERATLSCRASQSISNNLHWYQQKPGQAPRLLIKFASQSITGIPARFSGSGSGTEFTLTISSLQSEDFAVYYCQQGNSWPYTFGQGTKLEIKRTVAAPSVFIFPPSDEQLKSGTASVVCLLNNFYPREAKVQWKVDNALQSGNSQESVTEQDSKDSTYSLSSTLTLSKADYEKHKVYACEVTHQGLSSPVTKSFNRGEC
notes: IgG1,kappa

EC50 (purified human C1q [5]): 0.5 µg/mL
B12: IgG1-hDR5-01-G56T-S267E/H268F/S324T/E430G (antibody)
heavy: B7 heavy with S268E, H269F, S325T, A334E, L397P
light: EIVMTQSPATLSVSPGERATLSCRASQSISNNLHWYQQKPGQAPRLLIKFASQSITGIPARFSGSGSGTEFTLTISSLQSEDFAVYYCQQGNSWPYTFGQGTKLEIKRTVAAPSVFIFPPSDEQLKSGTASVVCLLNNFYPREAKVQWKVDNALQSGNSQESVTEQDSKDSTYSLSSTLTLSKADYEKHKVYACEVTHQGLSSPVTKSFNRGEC
notes: IgG1,kappa
